Results reported in US20100260668A1 (published 2010).

How the values were obtained:
HGF-His tag [1] = molecular target: T1, HGF-His tag (UniProt P14210 32-728); experiment: direct bind ELISA (N-term VD);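 note: ELISA screen of antibodies for binding to plate-immobilized target antigen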
T1 construct: Bought antigen coated on the ELISA plate; not shown: His tag

HGF-His tag [2] = molecular target: T1, HGF-His tag; experiment: direct bind ELISA (C-term VD)
Procedure: (§1) Enzyme Linked Immunosorbent Assays to screen for antibodies that bind a desired target antigen were performed as follows. […] Plates were washed four times with PBS containing 0.02% Tween 20. Plates were blocked by the addition of 300 μL/well blocking solution (non-fat dry milk powder, various retail suppliers, diluted to 2% in PBS) for ½ hour at room temperature. Plates were washed four times after blocking with PBS containing 0.02% Tween 20.
(§2) Alternatively, one hundred microliters per well of 10 μg/ml of Histidine (His) tagged desired target antigen (R&D Systems, Minneapolis, Minn.) was added to ELISA plates coated with monoclonal mouse anti-polyHistidine antibody as described above and incubated for 1 hour at room temperature. Wells were washed four times with PBS containing 0.02% Tween 20.
(§3) Plates were washed 4 times with PBS containing 0.02% Tween 20.

VEGF 1-165 aa = molecular target: T2, VEGF 1-165 aa (UniProt P15692 27-191); experiment: direct bind ELISA (N-term VD);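 note: ELISA screen of antibodies for binding to plate-immobilized target antigen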
T2 construct: Bought antigen coated on the ELISA plate
T2 sequence (P15692 other isoform, or with tags, fused parts or gaps limits assumed): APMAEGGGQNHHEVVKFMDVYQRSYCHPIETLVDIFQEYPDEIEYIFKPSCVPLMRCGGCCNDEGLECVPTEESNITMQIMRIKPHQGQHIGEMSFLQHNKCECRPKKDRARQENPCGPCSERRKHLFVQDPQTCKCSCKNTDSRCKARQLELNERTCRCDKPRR
Procedure: as §1, §2, §3

T1 sequence (P14210 32-728 limits assumed): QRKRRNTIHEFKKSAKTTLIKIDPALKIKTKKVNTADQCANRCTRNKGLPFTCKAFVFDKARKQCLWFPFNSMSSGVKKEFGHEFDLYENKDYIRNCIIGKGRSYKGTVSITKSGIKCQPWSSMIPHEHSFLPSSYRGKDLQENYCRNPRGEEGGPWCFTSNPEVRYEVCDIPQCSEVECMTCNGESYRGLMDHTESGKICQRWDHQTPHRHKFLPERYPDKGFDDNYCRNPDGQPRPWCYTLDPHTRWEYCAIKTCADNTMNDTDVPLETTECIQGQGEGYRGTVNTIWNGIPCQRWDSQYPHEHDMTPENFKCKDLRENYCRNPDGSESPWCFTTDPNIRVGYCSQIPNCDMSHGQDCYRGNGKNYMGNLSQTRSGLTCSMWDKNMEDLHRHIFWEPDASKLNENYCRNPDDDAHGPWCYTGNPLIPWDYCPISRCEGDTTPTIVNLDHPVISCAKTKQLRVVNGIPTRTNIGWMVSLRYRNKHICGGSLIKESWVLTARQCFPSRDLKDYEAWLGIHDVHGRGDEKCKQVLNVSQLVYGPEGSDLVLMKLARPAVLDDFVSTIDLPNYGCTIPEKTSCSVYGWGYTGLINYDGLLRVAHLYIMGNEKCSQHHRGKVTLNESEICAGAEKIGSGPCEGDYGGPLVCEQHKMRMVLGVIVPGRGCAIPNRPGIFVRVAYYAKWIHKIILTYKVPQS

EC50 (HGF-His tag [1]) | EC50 (HGF-His tag [2]) | EC50 (VEGF 1-165 aa) | Binder
0.00017 µM | – | – | DVD645 (bispecific antibody, human IgG1, kappa, DVD-Ig; N-term VD AB012 (HGF), C-term VD AB071 (VEGF); HC linker long, LC linker long; vectors V1/V2) heavy: not shown light: DIQMTQSPSSVSASVGDRVTITCRASQGISSWLAWYQQKPGKAPNLLIYEASSLQSGVPSRFGGSGSGTDFTLTISSLQPEDFATYYCQQANGFPWTFGQGTKVEIKRTVAAPSVFIFPPDIQMTQSPSSLSASVGDRVTITCRASQVIRRSLAWYQQKPGKAPKLLIYAASNLASGVPSRFSGSGSGTDFTLTISSLQPEDFATYYCQQSNTSPLTFGQGTKVEIKRTVAAPSVFIFPPSDEQLKSGTASVVCLLNNFYPREAKVQWKVDNALQSGNSQESVTEQDSKDSTYSLSSTLTLSKADYEKHKVYACEVTHQGLSSPVTKSFNRGEC
– | 0.0031 µM | 0.0483 µM | DVD670 (bispecific antibody, human IgG1, kappa, DVD-Ig; N-term VD AB071 (VEGF), C-term VD AB079 (HGF); HC linker long, LC linker long; vectors V1/V2) heavy: not shown light: DIQMTQSPSSLSASVGDRVTITCRASQVIRRSLAWYQQKPGKAPKLLIYAASNLASGVPSRFSGSGSGTDFTLTISSLQPEDFATYYCQQSNTSPLTFGQGTKVEIKRTVAAPSVFIFPPDIQMTQSPSSLSASVGDRVTITCKASENVVSYVSWYQQKPGKAPKLLIYGASNRNTGVPSRFSGSGSGTDFTLTISSLQPEDFATYYCGQSYNYPYTFGQGTKLEIKRTVAAPSVFIFPPSDEQLKSGTASVVCLLNNFYPREAKVQWKVDNALQSGNSQESVTEQDSKDSTYSLSSTLTLSKADYEKHKVYACEVTHQGLSSPVTKSFNRGEC
– | 0.00655 µM | 0.0531 µM | DVD682 (bispecific antibody, human IgG1, kappa, DVD-Ig; N-term VD AB071 (VEGF), C-term VD AB079 (HGF); HC linker short, LC linker long; vectors V1/V2) heavy: not shown light: DIQMTQSPSSLSASVGDRVTITCRASQVIRRSLAWYQQKPGKAPKLLIYAASNLASGVPSRFSGSGSGTDFTLTISSLQPEDFATYYCQQSNTSPLTFGQGTKVEIKRTVAAPSVFIFPPDIQMTQSPSSLSASVGDRVTITCKASENVVSYVSWYQQKPGKAPKLLIYGASNRNTGVPSRFSGSGSGTDFTLTISSLQPEDFATYYCGQSYNYPYTFGQGTKLEIKRTVAAPSVFIFPPSDEQLKSGTASVVCLLNNFYPREAKVQWKVDNALQSGNSQESVTEQDSKDSTYSLSSTLTLSKADYEKHKVYACEVTHQGLSSPVTKSFNRGEC
– | 0.0229 µM | 0.0161 µM | DVD672 (bispecific antibody, human IgG1, kappa, DVD-Ig; HC linker long, LC linker short; vectors V1/V2) heavy: not shown light: DIQMTQSPSSLSASVGDRVTITCSASQDISNYLNWYQQKPGKAPKVLIYFTSSLHSGVPSRFSGSGSGTDFTLTISSLQPEDFATYYCQQYSTVPWTFGQGTKVEIKRTVAAPDIQMTQSPSSLSASVGDRVTITCKASENVVSYVSWYQQKPGKAPKLLIYGASNRNTGVPSRFSGSGSGTDFTLTISSLQPEDFATYYCGQSYNYPYTFGQGTKLEIKRTVAAPSVFIFPPSDEQLKSGTASVVCLLNNFYPREAKVQWKVDNALQSGNSQESVTEQDSKDSTYSLSSTLTLSKADYEKHKVYACEVTHQGLSSPVTKSFNRGEC
– | 0.0372 µM | 0.0642 µM | DVD712 (bispecific antibody, human IgG1, kappa, DVD-Ig; N-term VD AB071 (VEGF), C-term VD AB012 (HGF); HC linker short, LC linker short; vectors V1/V2) heavy: not shown light: DIQMTQSPSSLSASVGDRVTITCRASQVIRRSLAWYQQKPGKAPKLLIYAASNLASGVPSRFSGSGSGTDFTLTISSLQPEDFATYYCQQSNTSPLTFGQGTKVEIKRTVAAPDIQMTQSPSSVSASVGDRVTITCRASQGISSWLAWYQQKPGKAPNLLIYEASSLQSGVPSRFGGSGSGTDFTLTISSLQPEDFATYYCQQANGFPWTFGQGTKVEIKRTVAAPSVFIFPPSDEQLKSGTASVVCLLNNFYPREAKVQWKVDNALQSGNSQESVTEQDSKDSTYSLSSTLTLSKADYEKHKVYACEVTHQGLSSPVTKSFNRGEC
– | 0.0178 µM | 0.00243 µM | DVD710 (bispecific antibody, human IgG1, kappa, DVD-Ig; HC linker short, LC linker short; vectors V1/V2) heavy: not shown light: DIQMTQSPSSLSASVGDRVTITCRASQDVSTAVAWYQQKPGKAPKLLIYSASFLYSGVPSRFSGSGSGTDFTLTISSLQPEDFATYYCQQSYTTPPTFGQGTKVEIKRTVAAPDIQMTQSPSSVSASVGDRVTITCRASQGISSWLAWYQQKPGKAPNLLIYEASSLQSGVPSRFGGSGSGTDFTLTISSLQPEDFATYYCQQANGFPWTFGQGTKVEIKRTVAAPSVFIFPPSDEQLKSGTASVVCLLNNFYPREAKVQWKVDNALQSGNSQESVTEQDSKDSTYSLSSTLTLSKADYEKHKVYACEVTHQGLSSPVTKSFNRGEC
– | 0.214 µM | 0.0702 µM | DVD662 (bispecific antibody, human IgG1, kappa, DVD-Ig; HC linker short, LC linker short; vectors V1/V2) heavy: not shown light: DIQMTQSPSSLSASVGDRVTITCRASQDVSTAVAWYQQKPGKAPKLLIYSASFLYSGVPSRFSGSGSGTDFTLTISSLQPEDFATYYCQQSYTTPPTFGQGTKVEIKRTVAAPDIQMTQSPSSLSASVGDRVTITCKASENVVSYVSWYQQKPGKAPKLLIYGASNRNTGVPSRFSGSGSGTDFTLTISSLQPEDFATYYCGQSYNYPYTFGQGTKLEIKRTVAAPSVFIFPPSDEQLKSGTASVVCLLNNFYPREAKVQWKVDNALQSGNSQESVTEQDSKDSTYSLSSTLTLSKADYEKHKVYACEVTHQGLSSPVTKSFNRGEC
– | 0.0176 µM | 0.0106 µM | DVD674 (bispecific antibody, human IgG1, kappa, DVD-Ig; HC linker long, LC linker short; vectors V1/V2) heavy: not shown light: DIQMTQSPSSLSASVGDRVTITCRASQDVSTAVAWYQQKPGKAPKLLIYSASFLYSGVPSRFSGSGSGTDFTLTISSLQPEDFATYYCQQSYTTPPTFGQGTKVEIKRTVAAPDIQMTQSPSSLSASVGDRVTITCKASENVVSYVSWYQQKPGKAPKLLIYGASNRNTGVPSRFSGSGSGTDFTLTISSLQPEDFATYYCGQSYNYPYTFGQGTKLEIKRTVAAPSVFIFPPSDEQLKSGTASVVCLLNNFYPREAKVQWKVDNALQSGNSQESVTEQDSKDSTYSLSSTLTLSKADYEKHKVYACEVTHQGLSSPVTKSFNRGEC
– | 0.0202 µM | 0.136 µM | DVD668 (bispecific antibody, human IgG1, kappa, DVD-Ig; HC linker long, LC linker long; vectors V1/V2) heavy: not shown light: DIQMTQSPSSLSASVGDRVTITCRASQDVSTAVAWYQQKPGKAPKLLIYSASFLYSGVPSRFSGSGSGTDFTLTISSLQPEDFATYYCQQSYTTPPTFGQGTKVEIKRTVAAPSVFIFPPDIQMTQSPSSLSASVGDRVTITCKASENVVSYVSWYQQKPGKAPKLLIYGASNRNTGVPSRFSGSGSGTDFTLTISSLQPEDFATYYCGQSYNYPYTFGQGTKLEIKRTVAAPSVFIFPPSDEQLKSGTASVVCLLNNFYPREAKVQWKVDNALQSGNSQESVTEQDSKDSTYSLSSTLTLSKADYEKHKVYACEVTHQGLSSPVTKSFNRGEC
– | 0.00517 µM | 0.0126 µM | DVD680 (bispecific antibody, human IgG1, kappa, DVD-Ig; HC linker short, LC linker long; vectors V1/V2) heavy: not shown light: DIQMTQSPSSLSASVGDRVTITCRASQDVSTAVAWYQQKPGKAPKLLIYSASFLYSGVPSRFSGSGSGTDFTLTISSLQPEDFATYYCQQSYTTPPTFGQGTKVEIKRTVAAPSVFIFPPDIQMTQSPSSLSASVGDRVTITCKASENVVSYVSWYQQKPGKAPKLLIYGASNRNTGVPSRFSGSGSGTDFTLTISSLQPEDFATYYCGQSYNYPYTFGQGTKLEIKRTVAAPSVFIFPPSDEQLKSGTASVVCLLNNFYPREAKVQWKVDNALQSGNSQESVTEQDSKDSTYSLSSTLTLSKADYEKHKVYACEVTHQGLSSPVTKSFNRGEC
– | 0.0809 µM | 0.0409 µM | DVD664 (bispecific antibody, human IgG1, kappa, DVD-Ig; N-term VD AB071 (VEGF), C-term VD AB079 (HGF); HC linker short, LC linker short; vectors V1/V2) heavy: not shown light: DIQMTQSPSSLSASVGDRVTITCRASQVIRRSLAWYQQKPGKAPKLLIYAASNLASGVPSRFSGSGSGTDFTLTISSLQPEDFATYYCQQSNTSPLTFGQGTKVEIKRTVAAPDIQMTQSPSSLSASVGDRVTITCKASENVVSYVSWYQQKPGKAPKLLIYGASNRNTGVPSRFSGSGSGTDFTLTISSLQPEDFATYYCGQSYNYPYTFGQGTKLEIKRTVAAPSVFIFPPSDEQLKSGTASVVCLLNNFYPREAKVQWKVDNALQSGNSQESVTEQDSKDSTYSLSSTLTLSKADYEKHKVYACEVTHQGLSSPVTKSFNRGEC
– | 0.0358 µM | 0.13 µM | DVD676 (bispecific antibody, human IgG1, kappa, DVD-Ig; N-term VD AB071 (VEGF), C-term VD AB079 (HGF); HC linker long, LC linker short; vectors V1/V2) heavy: not shown light: DIQMTQSPSSLSASVGDRVTITCRASQVIRRSLAWYQQKPGKAPKLLIYAASNLASGVPSRFSGSGSGTDFTLTISSLQPEDFATYYCQQSNTSPLTFGQGTKVEIKRTVAAPDIQMTQSPSSLSASVGDRVTITCKASENVVSYVSWYQQKPGKAPKLLIYGASNRNTGVPSRFSGSGSGTDFTLTISSLQPEDFATYYCGQSYNYPYTFGQGTKLEIKRTVAAPSVFIFPPSDEQLKSGTASVVCLLNNFYPREAKVQWKVDNALQSGNSQESVTEQDSKDSTYSLSSTLTLSKADYEKHKVYACEVTHQGLSSPVTKSFNRGEC
0.00026 µM | – | – | DVD663 (bispecific antibody, human IgG1, kappa, DVD-Ig; N-term VD AB079 (HGF), C-term VD AB071 (VEGF); HC linker short, LC linker short; vectors V1/V2) heavy: not shown light: DIQMTQSPSSLSASVGDRVTITCKASENVVSYVSWYQQKPGKAPKLLIYGASNRNTGVPSRFSGSGSGTDFTLTISSLQPEDFATYYCGQSYNYPYTFGQGTKLEIKRTVAAPDIQMTQSPSSLSASVGDRVTITCRASQVIRRSLAWYQQKPGKAPKLLIYAASNLASGVPSRFSGSGSGTDFTLTISSLQPEDFATYYCQQSNTSPLTFGQGTKVEIKRTVAAPSVFIFPPSDEQLKSGTASVVCLLNNFYPREAKVQWKVDNALQSGNSQESVTEQDSKDSTYSLSSTLTLSKADYEKHKVYACEVTHQGLSSPVTKSFNRGEC
– | 0.0147 µM | 0.134 µM | DVD666 (bispecific antibody, human IgG1, kappa, DVD-Ig; HC linker long, LC linker long; vectors V1/V2) heavy: not shown light: DIQMTQSPSSLSASVGDRVTITCSASQDISNYLNWYQQKPGKAPKVLIYFTSSLHSGVPSRFSGSGSGTDFTLTISSLQPEDFATYYCQQYSTVPWTFGQGTKVEIKRTVAAPSVFIFPPDIQMTQSPSSLSASVGDRVTITCKASENVVSYVSWYQQKPGKAPKLLIYGASNRNTGVPSRFSGSGSGTDFTLTISSLQPEDFATYYCGQSYNYPYTFGQGTKLEIKRTVAAPSVFIFPPSDEQLKSGTASVVCLLNNFYPREAKVQWKVDNALQSGNSQESVTEQDSKDSTYSLSSTLTLSKADYEKHKVYACEVTHQGLSSPVTKSFNRGEC
– | 0.00469 µM | 0.00065 µM | DVD678 (bispecific antibody, human IgG1, kappa, DVD-Ig; HC linker short, LC linker long; vectors V1/V2) heavy: not shown light: DIQMTQSPSSLSASVGDRVTITCSASQDISNYLNWYQQKPGKAPKVLIYFTSSLHSGVPSRFSGSGSGTDFTLTISSLQPEDFATYYCQQYSTVPWTFGQGTKVEIKRTVAAPSVFIFPPDIQMTQSPSSLSASVGDRVTITCKASENVVSYVSWYQQKPGKAPKLLIYGASNRNTGVPSRFSGSGSGTDFTLTISSLQPEDFATYYCGQSYNYPYTFGQGTKLEIKRTVAAPSVFIFPPSDEQLKSGTASVVCLLNNFYPREAKVQWKVDNALQSGNSQESVTEQDSKDSTYSLSSTLTLSKADYEKHKVYACEVTHQGLSSPVTKSFNRGEC
